Assay results published in US20150004189A1.

Assays:
HLA-DP DPB1*0101 (human) = experiment: inhibition of radiolabeled peptide binding to purified HLA-DP
HLA-DP DPB1*0402 (human) = experiment: as above
HLA-DP DPB1*0501 (human) = experiment: as above
HLA-DP DPB1*0201 (human) = experiment: as above
HLA-DP DPB1*2001 (human) = experiment: as above
[1] = molecular target: HLA-DR molecule DRB1*0162 (so in the source) (human); experiment: radiolabeled-peptide competition on purified HLA class II
[2] = molecular target: HLA DP molecule DPB1*2001 (human); experiment: inhibition of radiolabeled peptide binding to purified HLA DP
[3] = molecular target: HLA-DQ molecule DQB1*0502 (human); experiment: competition: inhibition of radiolabeled peptide binding to purified HLA
[4] = molecular target: HLA-DQ molecule DQB1*0503 (human); experiment: as above
[5] = molecular target: HLA DP molecule DPB1*1401 (human); experiment: inhibition of radiolabeled peptide binding to purified HLA DP
[6] = molecular target: HLA-DQ molecule DQB1*0602 (human); experiment: competition: inhibition of radiolabeled peptide binding to purified HLA
[7] = molecular target: HLA-DQ molecule DQB1*0202 (human); experiment: as above
[8] = molecular target: HLA DP molecule DPB1*1401 (human); experiment: competition vs radiolabeled peptide, purified HLA-DP
[9] = molecular target: HLA DP molecule DPB1*2001 (human); experiment: as above
[10] = molecular target: HLA DP molecule DPB1*0501 (human); experiment: as above
HLA-DP DPB1*1401 (human) = experiment: inhibition of radiolabeled peptide binding to purified HLA-DP

Substance | IC50 (HLA-DP DPB1*0101 (human)) [nM] | IC50 (HLA-DP DPB1*0501 (human)) [nM] | IC50 (HLA-DP DPB1*2001 (human)) [nM] | other results
Aln g 1 (11-25) peptide 3324.0004 | 85 | 493 | – | IC50 (HLA-DP DPB1*0402 (human)): 1500 nM
Aln g 1 (16-30) peptide 3324.0003 | – | – | 2570 | IC50 (HLA-DP DPB1*0201 (human)): 36 nM
Aln g 1 (111-125) peptide 3324.0007 | 391 | 3.3 | – | –
Alt a 1 peptide 3324.0013 (position 111) | – | – | – | IC50 [1]: 856 nM
Alt a 1 peptide 3324.0014 (position 116) | – | – | – | IC50 [1]: 504 nM
Alt a 1 peptide 3324.0015 (position 6) | – | – | – | IC50 [1]: 871 nM
Alt a 1 peptide 3324.0017 (position 11) | – | – | – | IC50 [1]: 956 nM
Alt a 1 peptide, position 6 (Peptide ID 3324.0015) | – | – | – | IC50 [2]: 2090 nM
Alt a 1 peptide, position 6, Peptide ID 3324.0015 | – | – | – | IC50 [3]: 7020 nM; IC50 [4]: 7260 nM
Alt a 1 peptide, position 11 (Peptide ID 3324.0017) | – | – | – | IC50 [5]: 125 nM; IC50 [2]: 184 nM
Alt a 1 peptide, position 11, Peptide ID 3324.0017 | – | – | – | IC50 [3]: 8000 nM; IC50 [4]: 223 nM; IC50 [6]: 21 nM
Alt a 1 peptide, position 111 (Peptide ID 3324.0013) | – | – | – | IC50 [5]: 4370 nM
Alt a 1 peptide, position 111, Peptide ID 3324.0013 | – | – | – | IC50 [7]: 8360 nM; IC50 [4]: 19400 nM
Alt a 1 peptide, position 116 (Peptide ID 3324.0014) | – | – | – | IC50 [2]: 200 nM
Alt a 1 peptide, position 116, Peptide ID 3324.0014 | – | – | – | IC50 [3]: 8970 nM; IC50 [6]: 2230 nM
Alt a 1 peptide, position 141 (Peptide ID 3324.0011) | – | – | – | IC50 [5]: 3390 nM; IC50 [2]: 8830 nM
Alt a 1 peptide, position 141, Peptide ID 3324.0011 | – | – | – | IC50 [7]: 31700 nM; IC50 [3]: 6010 nM; IC50 [4]: 9100 nM; IC50 [6]: 4950 nM
Alt a 1 peptide, position 143 (Peptide ID 3324.0016) | – | – | – | IC50 [5]: 1430 nM; IC50 [2]: 8650 nM
Alt a 1 peptide, position 143, Peptide ID 3324.0016 | – | – | – | IC50 [7]: 7020 nM; IC50 [3]: 7750 nM; IC50 [6]: 70 nM
Alt a 5 peptide, position 51, … (Peptide ID 3324.0065) | – | – | – | IC50 [8]: 50 nM; IC50 [9]: 7500 nM
Alt a 6 peptide, position 161, … (Peptide ID 3324.0073) | – | – | – | IC50 [9]: 7640 nM
Alt a 7 peptide, position 6, … (Peptide ID 3324.0085) | – | – | – | IC50 [10]: 47 nM; IC50 [9]: 1290 nM

Substance | IC50 (HLA-DP DPB1*0101 (human)) [nM] | IC50 (HLA-DP DPB1*0501 (human)) [nM] | IC50 (HLA-DP DPB1*2001 (human)) [nM] | other results
Alt a 7 peptide, position 190, … (Peptide ID 3324.0080) | – | – | – | IC50 [8]: 938 nM; IC50 [9]: 77 nM
Bet v 1 (96-110) peptide 3324.0353 | 4090 | – | 5920 | IC50 (HLA-DP DPB1*1401 (human)): 5980 nM
Bet v 1 (111-125) peptide 3324.0352 | 279 | 2.2 | 13000 | IC50 (HLA-DP DPB1*1401 (human)): 7590 nM
Bet v 6 (206-220) peptide 3324.0387 | – | – | 3.3 | IC50 (HLA-DP DPB1*1401 (human)): 3770 nM
Bet v 6 (211-225) peptide 3324.0386 | 1610 | 1050 | – | –
Cha o 1 (86-100) peptide 3324.0517 | – | 11 | 83 | –
Cha o 1 peptide 96-110 … (Peptide ID 3324.0523) | – | 7500 | 4960 | IC50 (HLA-DP DPB1*1401 (human)): 525 nM
Cla h 5 peptide, position 6, … (Peptide ID 3324.0576) | – | – | – | IC50 [9]: 143 nM
Cla h 6 peptide, position 161, … (Peptide ID 3324.0588) | – | – | – | IC50 [8]: 9670 nM; IC50 [9]: 29600 nM
Cla h 8 peptide, position 151, … (Peptide ID 3324.0603) | – | – | – | IC50 [8]: 36 nM
Cup a 1 peptide 66-80 … (Peptide ID 3324.0604) | 6940 | – | 23900 | IC50 (HLA-DP DPB1*1401 (human)): 29 nM
Cup a 1 peptide 71-85 … (Peptide ID 3324.0607) | 692 | – | 13600 | IC50 (HLA-DP DPB1*1401 (human)): 3580 nM
Cup a 1 peptide 316-330 … (Peptide ID 3324.0606) | 8240 | – | 25500 | IC50 (HLA-DP DPB1*1401 (human)): 155 nM
Cup s 1 peptide 86-100 … (Peptide ID 3324.0615) | 676 | – | 9180 | –
Cup s 1 peptide 91-105 … (Peptide ID 3324.0618) | 806 | 179 | 35400 | IC50 (HLA-DP DPB1*0402 (human)): 75 nM
Cup s 1 peptide 96-110 … (Peptide ID 3324.0624) | 2360 | – | 25700 | –
Dac g 2 peptide 11-25 … (Peptide ID 3324.0657) | – | – | 6270 | IC50 (HLA-DP DPB1*1401 (human)): 8100 nM
Dac g 2 peptide 16-30 … (Peptide ID 3324.0658) | 1350 | 717 | – | IC50 (HLA-DP DPB1*1401 (human)): 32000 nM
Dac g 4 peptide 1-15 … (Peptide ID 3324.0663) | – | 1440 | – | –
Der f 1 (136-150) peptide 3324.0666 | 8430 | – | – | –
Der p 1 (131-145) peptide 3324.0832 | – | – | 7.7 | –
Der p 1 (136-150) peptide 3324.0829 | 1200 | 4930 | 449 | IC50 (HLA-DP DPB1*1401 (human)): 9420 nM

Substance | IC50 (HLA-DP DPB1*0101 (human)) [nM] | IC50 (HLA-DP DPB1*0501 (human)) [nM] | IC50 (HLA-DP DPB1*2001 (human)) [nM] | other results
Der p 1 (176-190) peptide 3324.0831 | – | 35200 | – | –
Der p 1 (226-240) peptide 3324.0840 | – | 4000 | 310 | IC50 (HLA-DP DPB1*0402 (human)): 32 nM
Der p 4 (86-100) peptide 3324.0981 | – | – | 17 | IC50 (HLA-DP DPB1*0201 (human)): 220 nM
Der p 4 (96-110) peptide 3324.0987 | 15500 | 3450 | 2930 | –
Der p 4 (251-265) peptide 3324.0976 | – | – | 247 | –
Der p 4 (321-335) peptide 3324.0977 | 1640 | 5070 | 1000 | –
Der p 4 (381-395) peptide 3324.0986 | 324 | – | – | –
Der p 4 (386-400) peptide 3324.0978 | – | 2230 | 9000 | –
Der p 4 (411-425) peptide 3324.0980 | 400 | – | 6.9 | IC50 (HLA-DP DPB1*0402 (human)): 1510 nM; IC50 (HLA-DP DPB1*1401 (human)): 703 nM
Der p 4 (416-430) peptide 3324.0974 | 9.1 | 13 | 3.5 | –
Der p 4 (476-490) peptide 3324.0975 | 323 | 76 | 379 | IC50 (HLA-DP DPB1*0402 (human)): 83 nM
Der p 4 (482-496) peptide 3324.0971 | 173 | – | 509 | IC50 (HLA-DP DPB1*0402 (human)): 66 nM; IC50 (HLA-DP DPB1*1401 (human)): 11400 nM
Lol p 2 peptide 51-65 … (Peptide ID 3324.1139) | – | – | 7940 | –
Lol p 2 peptide 56-70 … (Peptide ID 3324.1140) | – | 12400 | – | –
Lol p 11 peptide 111-125 … (Peptide ID 3324.1138) | 205 | 0.25 | 223 | –
Lol p 11 peptide 116-130 … (Peptide ID 3337.0029) | – | 51 | 8.1 | IC50 (HLA-DP DPB1*1401 (human)): 18100 nM
Que a 1 peptide 11-25 … (Peptide ID 3324.1587) | 114 | 341 | – | –
Que a 1 peptide 16-30 … (Peptide ID 3324.1585) | 17 | 80 | 274 | –
Que a 1 peptide 21-35 … (Peptide ID 3324.1588) | 141 | 242 | 3490 | –
Que a 1 peptide 141-155 … (Peptide ID 3324.1584) | 21 | 31 | 1300 | IC50 (HLA-DP DPB1*1401 (human)): 40 nM
Sal k 1 1 peptide 191-205, … (Peptide ID 3324.1590) | 922 | – | 558 | IC50 (HLA-DP DPB1*1401 (human)): 1920 nM
Sal k 1 1 peptide 321-335, … (Peptide ID 3324.1589) | 56 | – | 4880 | –
